Reference: patent publication US20230055694A1 (INSTIL BIO UK, published 2023)

T1: rhCEACAM5-Fc (human, UniProt P06731 35-685)
T1 construct: Bought staining reagent; construct limits and Fc not described; also called primary rhCEACAM5-Fc antibody; CEA.hFc protein; not shown: Fc tag detected with anti-IgG-Fc-PE
T1 sequence (looked up): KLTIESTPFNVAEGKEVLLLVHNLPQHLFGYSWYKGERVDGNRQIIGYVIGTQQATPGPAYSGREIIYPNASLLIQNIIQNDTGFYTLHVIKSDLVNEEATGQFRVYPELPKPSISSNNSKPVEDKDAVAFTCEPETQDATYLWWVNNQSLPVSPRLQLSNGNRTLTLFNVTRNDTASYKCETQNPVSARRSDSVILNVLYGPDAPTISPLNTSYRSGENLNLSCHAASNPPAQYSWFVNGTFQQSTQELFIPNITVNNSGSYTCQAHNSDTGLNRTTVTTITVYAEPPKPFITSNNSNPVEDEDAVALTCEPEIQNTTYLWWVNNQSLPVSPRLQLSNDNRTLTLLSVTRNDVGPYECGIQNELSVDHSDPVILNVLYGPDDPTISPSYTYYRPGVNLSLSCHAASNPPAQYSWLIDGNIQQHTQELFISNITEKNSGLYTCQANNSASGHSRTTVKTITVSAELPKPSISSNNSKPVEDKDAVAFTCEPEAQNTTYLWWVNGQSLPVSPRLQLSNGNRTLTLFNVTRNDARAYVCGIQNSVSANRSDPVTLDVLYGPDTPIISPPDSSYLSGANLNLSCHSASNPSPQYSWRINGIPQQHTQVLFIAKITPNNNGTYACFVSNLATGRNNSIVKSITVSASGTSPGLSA


Key:
rhCEACAM5-Fc = target: T1, rhCEACAM5-Fc; assay: flow cytometry of transduced T cells: CoStAR detected with primary rhCEACAM5-Fc and secondary anti-IgG-Fc-PE (FIG. 26)
[1] = target: Human folate receptor alpha (FolR) on cells (human) (UniProt P15328); assay: cell-based or functional assay
Sequence of Human folate receptor alpha (FolR) on cells (human) (P15328 25-234): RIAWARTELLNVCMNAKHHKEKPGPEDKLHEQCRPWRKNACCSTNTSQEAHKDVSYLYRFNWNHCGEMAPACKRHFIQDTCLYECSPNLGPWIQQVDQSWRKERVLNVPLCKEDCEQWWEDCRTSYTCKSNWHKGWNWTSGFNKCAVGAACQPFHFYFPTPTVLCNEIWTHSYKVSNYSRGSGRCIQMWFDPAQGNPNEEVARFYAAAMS

Binder	binding result (rhCEACAM5-Fc)	enhancement of Bcl-XL induction in the presence of OvCAR-OKT3 [1]	mean fold expansion of transduced T cells over 21 days with OvCAR-OKT3 (CA125+/Folate receptor+/CEA-) [1]	also measured
MOV19.CD28.CD40 CoStAR (receptor, part only; not given: tag, linker, CD28 and CD40 parts, part only) chain, part: QVQLQQSGAELVKPGASVKISCKASGYSFTGYFMNWVKQSHGKSLEWIGRIHPYDGDTFYNQNFKDKATLTVDKSSNTAHMELLSLTSEDFAVYYCTRYDGSRAMDYWGQGTTVTVSSGGGGSGGGGSGGGGSDIELTQSPASLAVSLGQRAIISCKASQSVSFAGTSLMHWYHQKPGQQPKLLIYRASNLEAGVPTRFSGSGSKTDFTLNIHPVEEEDAATYYCQQSREYPYTFGGGTKLEIK	–	35%	1300 fold	CD137 expression [1]: 50%; CD137 expression of CoStAR+ TIL after coculture with FolR high expressing tumour digest [1]: 50%; CD137 expression of CoStAR+ TIL after coculture with FolR low expressing tumour digest [1]: > 20%; IL-2 production [1]: 5%; TNFα production [1]: 15%
MOV19.CD28 CoStAR (receptor, part only; not given: tag, linker and CD28 part, part only) chain, part: QVQLQQSGAELVKPGASVKISCKASGYSFTGYFMNWVKQSHGKSLEWIGRIHPYDGDTFYNQNFKDKATLTVDKSSNTAHMELLSLTSEDFAVYYCTRYDGSRAMDYWGQGTTVTVSSGGGGSGGGGSGGGGSDIELTQSPASLAVSLGQRAIISCKASQSVSFAGTSLMHWYHQKPGQQPKLLIYRASNLEAGVPTRFSGSGSKTDFTLNIHPVEEEDAATYYCQQSREYPYTFGGGTKLEIK	–	20%	187 fold	enhancement of IL-2 induction in the presence of OvCAR-OKT3 [1]: 20%

Further lines, with some results ahead:

binding result (rhCEACAM5-Fc)	enhancement of Bcl-XL induction in the presence of OvCAR-OKT3 [1]	mean fold expansion of transduced T cells over 21 days with OvCAR-OKT3 (CA125+/Folate receptor+/CEA-) [1]	Binder	also measured
binds	–	–	anti-CEA CoStAR CTP244 (OSM1 signal peptide, hMFE23 scFv, AAAGSGGSG linker, CD28 (trunc IIH) spacer, CD28 TM, CD28.CD40) (receptor, On transduced human T cells) QVKLEQSGAEVVKPGASVKLSCKASGFNIKDSYMHWLRQGPGQRLEWIGWIDPENGDTEYAPKFQGKATFTTDTSANTAYLGLSSLRPEDTAVYYCNEGTPTGPYYFDYWGQGTLVTVSSGGGGSGGGGSGGGGSENVLTQSPSSMSASVGDRVNIACSASSSVSYMHWFQQKPGKSPKLWIYSTSNLASGVPSRFSGSGSGTDYSLTISSMQPEDAATYYCQQRSSYPLTFGGGTKLEIKAAAGSGGSGIIHVKGKHLCPSPLFPGPSKPFWVLVVVGGVLACYSLLVTVAFIIFWVRSKRSRLLHSDYMNMTPRRPGPTRKHYQPYAPPRDFAAYRSKKVAKKPTNKAPHPKQEPQEINFPDDLPGSNTAAPVQETLHGCQPVTQEDGKESRISVQERQ	–
binds	–	–	anti-CEA CoStAR CTP232 (OSM1 signal peptide, hMFE23 scFv, AAAGSGGSG linker, CD8 EC spacer, CD8 TM, CD28.CD40) (receptor, On transduced human T cells) QVKLEQSGAEVVKPGASVKLSCKASGFNIKDSYMHWLRQGPGQRLEWIGWIDPENGDTEYAPKFQGKATFTTDTSANTAYLGLSSLRPEDTAVYYCNEGTPTGPYYFDYWGQGTLVTVSSGGGGSGGGGSGGGGSENVLTQSPSSMSASVGDRVNIACSASSSVSYMHWFQQKPGKSPKLWIYSTSNLASGVPSRFSGSGSGTDYSLTISSMQPEDAATYYCQQRSSYPLTFGGGTKLEIKAAAGSGGSGFVPVFLPAKPTTTPAPRPPTPAPTIASQPLSLRPEACRPAAGGAVHTRGLDFACDIYIWAPLAGTCGVLLLSLVITLYCNHRNRSKRSRLLHSDYMNMTPRRPGPTRKHYQPYAPPRDFAAYRSKKVAKKPTNKAPHPKQEPQEINFPDDLPGSNTAAPVQETLHGCQPVTQEDGKESRISVQERQ	–
